Reference: IntAct's records for PubMed 9722563

B1: Integrin beta-1 (Gallus gallus (Chicken)), P07228 (parent)
chain: MAETNLTLLTWAGILCCLIWSGSAQQGGSDCIKANAKSCGECIQAGPNCGWCKKTDFLQEGEPTSARCDDLAALKSKGCPEQDIENPRGSKRVLEDREVTNRKIGAAEKLKPEAITQIQPQKLVLQLRVGEPQTFSLKFKRAEDYPIDLYYLMDLSYSMKDDLENVKSLGTALMREMEKITSDFRIGFGSFVEKTVMPYISTTPAKLRNPCTGDQNCTSPFSYKNVLSLTSEGNKFNELVGKQHISGNLDSPEGGFDAIMQVAVCGDQIGWRNVTRLLVFSTDAGFHFAGDGKLGGIVLPNDGKCHLENNMYTMSHYYDYPSIAHLVQKLSENNIQTIFAVTEEFQAVYKELKNLIPKSAVGTLSSNSSNVIQLIIDAYNSLSSEVILENSKLPKEVTISYKSYCKNGVNDTQEDGRKCSNISIGDEVRFEINVTANECPKKGQNETIKIKPLGFTEEVEIHLQFICDCLCQSEGEPNSPACHDGNGTFECGACRCNEGRIGRLCECSTDEVNSEDMDAYCRRENSTEICSNNGECICGQCVCKKRENTNEVYSGKYCECDNFNCDRSNGLICGGNGICKCRVCECFPNFTGSACDCSLDTTPCMAGNGQICNGRGTCECGTCNCTDPKFQGPTCEMCQTCLGVCAEHKDCVQCRAFEKGEKKETCSQECMHFNMTRVESRGKLPQPVHPDPLSHCKEKDVGDCWFYFTYSVNSNGEASVHVVETPECPSGPDIIPIVAGVVAGIVLIGLALLLIWKLLMIIHDRREFAKFEKEKMNAKWDTGENPIYKSAVTTVVNPKYEGK

Variants of: B1
Settings: with flna_human FLNA

Variant	effect of a mutation on the interaction
D764V	decreasing interaction
N797D	decreasing interaction
N797I	decreasing interaction
Y788F	decreasing interaction
Y788E	disrupting interaction
Y788A	disrupting interaction
N785D	decreasing interaction
P786A	decreasing interaction
